The text below walks through data of patent publication US20260347496 (published 2026).

The chains are these.
B1: huG14-229 (antibody, V domains shown)
VH: EVQLVESGGGLVKPGGSLRLSCAASGLTFSNYWGNWVRQAPGKGLEWVALIRLYSDNYAIHYAESVKGRFTISRDDSKSTVYLQMNSLKTEDTAVYYCTTGTDNWGQGTTVTVSS
VL: DVVMTQSPLSLPVTPGRPASISCKSSQSLLYSNGRTYLNWLLQKPGQSPQRLIYLVSKLDSGVPDRFSGSGSGTDFTLKISRVEAEDLGVYYCIQGTYFPYTFGQGTKLEIK
B2: huG14-207 (antibody, V domains shown)
VH: B1 VH with G34M, N104Y
VL: B1 VL with R35K
B3: huG14-223 (antibody, V domains shown)
VH: B1 VH with G34M
VL: B1 VL with Q27H, R35K
B4: huG14-210 (antibody, V domains shown)
VH: B1 VH with G34M, N104Y
VL: B1 VL with Q27H
B5: huG14-213 (antibody, V domains shown)
VH: B1 VH with N104Y
VL: B1 VL with Q27H, I94V
B6: huG14-215 (antibody, V domains shown)
VH: B1 VH with N104Y
VL: B1 VL
B7: huG14-228 (antibody, V domains shown)
VH: B1 VH
VL: B1 VL with R35K
B8: huG14-208 (antibody, V domains shown)
VH: B1 VH with G34M, N104Y
VL: B1 VL
B9: huG14-206 (antibody, V domains shown)
VH: B1 VH with G34M, N104Y
VL: B1 VL with Q27H, I94V
B10: huG14-209 (antibody, V domains shown)
VH: B1 VH with G34M, N104Y
VL: B1 VL with Q27H, R35K
B11: huG14-224 (antibody, V domains shown)
VH: B1 VH with G34M
VL: B1 VL with Q27H
B12: huG14-220 (antibody, V domains shown)
VH: B1 VH with G34M
VL: B1 VL with Q27H, I94V
B13: huG14-205 (antibody, V domains shown)
VH: B1 VH with G34M, N104Y
VL: B1 VL with Q27H, R35K, I94V
B14: huG14-211 (antibody, V domains shown)
VH: B1 VH with N104Y
VL: B1 VL with Q27H, R35E
B15: huG14-214 (antibody, V domains shown)
VH: B1 VH with N104Y
VL: B1 VL with R35K
B16: huG14-221 (antibody, V domains shown)
VH: B1 VH with G34M
VL: B1 VL with R35K
B17: huG14-218 (antibody, V domains shown)
VH: B1 VH with G34M
VL: B1 VL with Q27H, R35E
B18: huG14-231 (antibody, V domains shown)
VH: B1 VH
VL: B1 VL with Q27H
B19: huG14-222 (antibody, V domains shown)
VH: B1 VH with G34M
VL: B1 VL
B20: huG14-212 (antibody, V domains shown)
VH: B1 VH with N104Y
VL: B1 VL with Q27H, R35K, I94V
B21: huG14-219 (antibody, V domains shown)
VH: B1 VH with G34M
VL: B1 VL with Q27H, R35K, I94V
B22: huG14-233 (antibody, V domains shown)
VH: B1 VH
VL: B1 VL with S10R, Q27H, Q105I
B23: huG14-225 (antibody, V domains shown)
VH: B1 VH
VL: B1 VL with Q27H, R35E
B24: huG14-226 (antibody, V domains shown)
VH: B1 VH
VL: B1 VL with Q27H, R35K, I94V
B25: huG14-204 (antibody, V domains shown)
VH: B1 VH with G34M, N104Y
VL: B1 VL with Q27H, R35E
B26: huG14-227 (antibody, V domains shown)
VH: B1 VH
VL: B1 VL with Q27H, I94V
B27: huG14-137 (antibody, V domains shown)
VH: B1 VH
VL: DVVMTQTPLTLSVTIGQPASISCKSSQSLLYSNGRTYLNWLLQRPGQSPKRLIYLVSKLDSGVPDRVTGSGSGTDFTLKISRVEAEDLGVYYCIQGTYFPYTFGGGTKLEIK
B28: huG14-116 (antibody, V domains shown)
VH: B1 VH with G34M, N104Y
VL: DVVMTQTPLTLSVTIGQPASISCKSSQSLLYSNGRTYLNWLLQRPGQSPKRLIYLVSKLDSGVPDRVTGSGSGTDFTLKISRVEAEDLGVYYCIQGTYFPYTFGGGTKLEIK
B29: huG14-117 (antibody, V domains shown)
VH: B1 VH with G34M, N104Y
VL: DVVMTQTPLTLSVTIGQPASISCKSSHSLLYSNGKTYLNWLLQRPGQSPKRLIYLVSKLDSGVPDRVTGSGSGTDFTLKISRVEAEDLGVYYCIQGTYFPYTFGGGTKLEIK
B30: huG14-118 (antibody, V domains shown)
VH: B1 VH with G34M, N104Y
VL: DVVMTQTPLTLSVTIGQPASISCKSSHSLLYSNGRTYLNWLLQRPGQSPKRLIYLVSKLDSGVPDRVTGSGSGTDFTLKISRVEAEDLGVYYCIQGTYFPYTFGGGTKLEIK
B31: huG14-112 (antibody, V domains shown)
VH: B1 VH with G34M, N104Y
VL: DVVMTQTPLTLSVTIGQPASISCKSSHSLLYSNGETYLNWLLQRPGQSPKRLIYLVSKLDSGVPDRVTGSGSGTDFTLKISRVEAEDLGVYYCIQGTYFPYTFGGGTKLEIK
B32: huG14-135 (antibody, V domains shown)
VH: B1 VH
VL: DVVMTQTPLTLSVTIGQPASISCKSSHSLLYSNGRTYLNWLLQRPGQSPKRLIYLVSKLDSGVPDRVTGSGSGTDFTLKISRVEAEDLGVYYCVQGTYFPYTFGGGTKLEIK
B33: huG14-129 (antibody, V domains shown)
VH: B1 VH with G34M
VL: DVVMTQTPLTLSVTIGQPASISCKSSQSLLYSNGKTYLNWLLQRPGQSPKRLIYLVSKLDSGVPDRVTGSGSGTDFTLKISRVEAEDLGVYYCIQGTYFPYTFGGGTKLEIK
B34: huG14-136 (antibody, V domains shown)
VH: B1 VH
VL: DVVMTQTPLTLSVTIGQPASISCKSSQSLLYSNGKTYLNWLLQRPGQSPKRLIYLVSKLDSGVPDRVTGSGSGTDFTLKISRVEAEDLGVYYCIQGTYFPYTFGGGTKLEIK
B35: huG14-138 (antibody, V domains shown)
VH: B1 VH
VL: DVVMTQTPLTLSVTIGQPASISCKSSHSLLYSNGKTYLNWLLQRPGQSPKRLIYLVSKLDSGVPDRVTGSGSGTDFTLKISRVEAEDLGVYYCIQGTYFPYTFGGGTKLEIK
B36: huG14-121 (antibody, V domains shown)
VH: B1 VH with N104Y
VL: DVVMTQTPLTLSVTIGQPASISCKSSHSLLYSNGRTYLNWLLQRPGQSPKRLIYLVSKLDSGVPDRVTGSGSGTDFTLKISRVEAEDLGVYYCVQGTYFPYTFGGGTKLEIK
B37: huG14-132 (antibody, V domains shown)
VH: B1 VH with G34M
VL: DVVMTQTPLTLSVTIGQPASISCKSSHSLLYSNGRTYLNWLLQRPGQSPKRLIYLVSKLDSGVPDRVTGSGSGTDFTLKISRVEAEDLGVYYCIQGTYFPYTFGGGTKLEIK
B38: huG14-123 (antibody, V domains shown)
VH: B1 VH with N104Y
VL: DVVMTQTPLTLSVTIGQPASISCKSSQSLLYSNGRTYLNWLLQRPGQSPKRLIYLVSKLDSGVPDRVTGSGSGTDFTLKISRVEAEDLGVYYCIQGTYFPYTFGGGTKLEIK
B39: huG14-114 (antibody, V domains shown)
VH: B1 VH with G34M, N104Y
VL: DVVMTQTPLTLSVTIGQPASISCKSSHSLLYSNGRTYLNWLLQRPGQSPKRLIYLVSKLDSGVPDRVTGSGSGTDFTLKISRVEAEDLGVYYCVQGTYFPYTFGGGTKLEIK
B40: huG14-139 (antibody, V domains shown)
VH: B1 VH
VL: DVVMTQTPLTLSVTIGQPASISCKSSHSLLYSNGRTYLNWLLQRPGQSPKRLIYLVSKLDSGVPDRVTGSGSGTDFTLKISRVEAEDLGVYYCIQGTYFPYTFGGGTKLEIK
B41: huG14-113 (antibody, V domains shown)
VH: B1 VH with G34M, N104Y
VL: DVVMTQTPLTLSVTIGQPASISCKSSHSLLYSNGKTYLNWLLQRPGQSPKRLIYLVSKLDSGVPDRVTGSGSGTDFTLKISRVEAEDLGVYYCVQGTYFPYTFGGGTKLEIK
B42: huG14-115 (antibody, V domains shown)
VH: B1 VH with G34M, N104Y
VL: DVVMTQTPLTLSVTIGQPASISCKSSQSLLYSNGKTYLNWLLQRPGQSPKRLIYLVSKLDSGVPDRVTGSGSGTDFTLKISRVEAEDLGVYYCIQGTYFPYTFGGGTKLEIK
B43: huG14-119 (antibody, V domains shown)
VH: B1 VH with N104Y
VL: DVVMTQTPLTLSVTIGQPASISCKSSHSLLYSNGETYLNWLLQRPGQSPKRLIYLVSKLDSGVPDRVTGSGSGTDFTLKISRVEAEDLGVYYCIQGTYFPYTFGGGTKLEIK
B44: huG14-126 (antibody, V domains shown)
VH: B1 VH with G34M
VL: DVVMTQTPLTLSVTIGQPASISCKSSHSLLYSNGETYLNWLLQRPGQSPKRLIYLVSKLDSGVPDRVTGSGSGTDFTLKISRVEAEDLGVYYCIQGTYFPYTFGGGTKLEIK
B45: huG14-122 (antibody, V domains shown)
VH: B1 VH with N104Y
VL: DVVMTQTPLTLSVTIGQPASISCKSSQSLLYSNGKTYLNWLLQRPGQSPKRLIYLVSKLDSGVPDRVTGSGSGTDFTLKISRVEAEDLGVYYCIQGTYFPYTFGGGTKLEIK
B46: huG14-128 (antibody, V domains shown)
VH: B1 VH with G34M
VL: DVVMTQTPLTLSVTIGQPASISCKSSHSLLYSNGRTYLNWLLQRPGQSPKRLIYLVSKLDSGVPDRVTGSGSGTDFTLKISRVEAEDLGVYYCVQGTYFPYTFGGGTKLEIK
B47: huG14-127 (antibody, V domains shown)
VH: B1 VH with G34M
VL: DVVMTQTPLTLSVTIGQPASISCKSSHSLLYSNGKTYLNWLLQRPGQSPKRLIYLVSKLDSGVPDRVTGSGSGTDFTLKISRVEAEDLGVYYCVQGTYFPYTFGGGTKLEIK
B48: huG14-120 (antibody, V domains shown)
VH: B1 VH with N104Y
VL: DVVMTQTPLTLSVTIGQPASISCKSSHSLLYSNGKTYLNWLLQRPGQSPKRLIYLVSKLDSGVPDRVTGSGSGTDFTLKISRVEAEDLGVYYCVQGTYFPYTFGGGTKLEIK
B49: huG14-133 (antibody, V domains shown)
VH: B1 VH
VL: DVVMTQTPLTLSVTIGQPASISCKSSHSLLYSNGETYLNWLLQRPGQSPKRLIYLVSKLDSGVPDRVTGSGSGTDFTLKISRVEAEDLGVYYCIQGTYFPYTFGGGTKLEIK
B50: huG14-134 (antibody, V domains shown)
VH: B1 VH
VL: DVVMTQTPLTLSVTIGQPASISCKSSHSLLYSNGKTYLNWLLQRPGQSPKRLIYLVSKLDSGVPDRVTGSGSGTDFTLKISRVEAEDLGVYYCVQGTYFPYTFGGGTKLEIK

Where a chain is given by its changes, count along the chain named. Values joined by “and” are separate entries in the source; they are usually repeats but may differ in a detail not shown here. Equal entries are not always repeated.

The first experiment deals with CD24(27-56aa)-GST NEOX-4 (human). Kind of experiment: ELISA. For orientation: In an ELISA, binding on a coated surface is turned into a signal by an enzyme label.
Chain of CD24(27-56aa)-GST NEOX-4 (human) (chain, as listed by the source): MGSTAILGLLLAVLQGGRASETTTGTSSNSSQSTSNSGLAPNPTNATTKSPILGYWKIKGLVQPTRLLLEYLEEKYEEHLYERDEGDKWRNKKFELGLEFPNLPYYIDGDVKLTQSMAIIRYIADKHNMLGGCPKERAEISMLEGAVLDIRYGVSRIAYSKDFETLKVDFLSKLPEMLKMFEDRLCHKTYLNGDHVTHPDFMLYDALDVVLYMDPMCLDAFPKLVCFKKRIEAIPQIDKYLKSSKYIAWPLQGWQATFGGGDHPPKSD
A word on the EC50: it is the concentration needed to bring the measured effect to its halfway point. Higher therefore signals weaker potency. B1 gave an EC50 of 9.1 ng/mL. The molecule B2 returned a half-maximal effective concentration (EC50) of 5.71 ng/mL.

For the molecule B3, the 50% effective concentration (EC50) was 4.82 ng/mL. B4 had an EC50 of 4.26 ng/mL. On the same count and under the same terms, the value for B5 was 3.29 ng/mL; that for B6 was 3.41 ng/mL; that for B7 was 9.88 ng/mL. Still for that read-out and setting: the value for B8 was 4.02 ng/mL; that for B9 was 4.92 ng/mL. B10 showed an EC50 of 4.13 ng/mL.

As for B11, the response was half-maximal at 6.18 ng/mL (EC50). Consider B12, for which it took 5.17 ng/mL to reach a half-maximal effect (EC50). B13 registered an EC50 of 6.28 ng/mL.

Consider B14, for which a half-maximal effect (EC50) was put at 3.34 ng/mL. B15 came in with an EC50 of 3.06 ng/mL. On to B16, for which the concentration giving a half-maximal response (EC50) is 5.93 ng/mL. B17: the EC50 came out at 4.71 ng/mL. Turning to B18, a half-maximal response (EC50) required 8.25 ng/mL. With B19, the half-maximal effective concentration (EC50) was determined as 4.91 ng/mL. B20 had a concentration for a half-maximal effect (EC50) of 3.19 ng/mL. Molecule B21 had a 50% effective concentration (EC50) of 5.69 ng/mL. Molecule B22 gave an EC50 of 8.41 ng/mL. Molecule B23 gave an EC50 of 6.28 ng/mL. B24 gave an EC50 of 10.7 ng/mL. Same read-out and setting: the value for B25 was 6.67 ng/mL; that for B26 was 7.63 ng/mL.

The next experiment shares this target. Kind of experiment: ELISA. This is another data set of the same source.
Molecule B27 yielded an EC50 of 3.87 ng/mL. On the same count and under the same terms, the value for B28 was 11.2 ng/mL; that for B29 was 7.27 ng/mL; that for B30 was 4.83 ng/mL. With B31, the EC50 is 12.1 ng/mL. B32 displayed an EC50 of 3.87 ng/mL. Same read-out and setting: the value for B33 was 4.09 ng/mL. Turning to B34, the concentration for a half-maximal effect (EC50) amounted to 4.05 ng/mL. In the case of B35, the EC50 was determined as 3.28 ng/mL.

As for B36, the EC50 was 7.37 ng/mL and 7.04 ng/mL. For B37, the EC50 came out at 4.72 ng/mL. B38 registered an EC50 of 3.86 ng/mL.

In the case of B39, the 50% effective concentration (EC50) amounted to 10.4 ng/mL. In turn, B40 displayed an EC50 of 3.17 ng/mL. Still for that read-out and setting: the value for B41 was 11.9 ng/mL; that for B42 was 12.9 ng/mL; that for B43 was 8.93 ng/mL. In turn, B44 displayed a concentration giving a half-maximal response (EC50) of 3.93 ng/mL. In turn, B45 displayed an EC50 of 7.12 ng/mL. Consider B46, for which the EC50 was found to be 4.12 ng/mL. The molecule B47 showed a half-maximal effective concentration (EC50) of 2.97 ng/mL. Regarding B48, a half-maximal effect (EC50) was put at 6.23 ng/mL. For the molecule B49, the EC50 turned out to be 5.66 ng/mL. As for B50, the half-maximal effective concentration (EC50) came to 3.83 ng/mL.
